# Experimental data published in IntAct's records for PubMed 31515488.
# B1: Coiled-coil domain-containing protein 33 (Homo sapiens), Q8N5R6-5 (parent)
# chain: MGEPGPPSPPAPKAAPGLIDSFSEMNNYRRAMQKMAEDILSLRRQASILEGENRILRSRLAQQEEEEGQGKASEAQNTVSMKQKLLLSELDMKKLRDRVQHLQNELIRKNDREKELLLLYQAQQPQAALLKQYQGKLQKMKALEETVRHQEKVIEKMERVLEDRLQDRSKPPPLNRQQGKPYTGFPMLSASGLPLGSMGENLPVELYSVLLAENAKLRTELDKNRHQQAPIILQQQALPVDPGELGAGGDLTERLQETHGPGHSECTETLPAQDLLSGTSDKFNLLAKLEHAQSRILSLESQLEDSARRWGREKQDLATRLQEQEKGFRHPSNSIIIEQPVSDPPGVAPRGSGGGAGSHRTPKVTGP
# partner: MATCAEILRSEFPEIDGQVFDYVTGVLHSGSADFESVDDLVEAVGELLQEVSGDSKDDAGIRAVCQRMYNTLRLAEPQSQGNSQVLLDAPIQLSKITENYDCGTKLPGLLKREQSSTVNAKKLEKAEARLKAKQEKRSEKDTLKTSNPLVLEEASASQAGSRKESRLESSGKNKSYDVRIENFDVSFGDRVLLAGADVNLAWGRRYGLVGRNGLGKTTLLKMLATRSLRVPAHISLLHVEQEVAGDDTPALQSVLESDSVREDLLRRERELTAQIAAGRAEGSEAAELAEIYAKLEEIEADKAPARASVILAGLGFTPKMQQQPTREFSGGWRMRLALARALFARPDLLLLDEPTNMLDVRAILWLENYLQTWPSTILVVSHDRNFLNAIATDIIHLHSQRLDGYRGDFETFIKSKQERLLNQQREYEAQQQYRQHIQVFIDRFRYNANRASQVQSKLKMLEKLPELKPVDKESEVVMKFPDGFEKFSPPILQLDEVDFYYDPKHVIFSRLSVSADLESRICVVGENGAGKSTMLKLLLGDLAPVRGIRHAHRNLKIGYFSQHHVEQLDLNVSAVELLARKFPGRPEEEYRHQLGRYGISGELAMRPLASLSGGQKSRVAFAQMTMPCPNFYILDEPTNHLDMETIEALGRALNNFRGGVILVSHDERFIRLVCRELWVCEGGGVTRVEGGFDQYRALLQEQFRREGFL
# B2: Isoform 1 of Targeting protein for Xklp2 (Homo sapiens), Q9ULW0-1 (parent)
# chain: MSQVKSSYSYDAPSDFINFSSLDDEGDTQNIDSWFEEKANLENKLLGKNGTGGLFQGKTPLRKANLQQAIVTPLKPVDNTYYKEAEKENLVEQSIPSNACSSLEVEAAISRKTPAQPQRRSLRLSAQKDLEQKEKHHVKMKAKRCATPVIIDEILPSKKMKVSNNKKKPEEEGSAHQDTAEKNASSPEKAKGRHTVPCMPPAKQKFLKSTEEQELEKSMKMQQEVVEMRKKNEEFKKLALAGIGQPVKKSVSQVTKSVDFHFRTDERIKQHPKNQEEYKEVNFTSELRKHPSSPARVTKGCTIVKPFNLSQGKKRTFDETVSTYVPLAQQVEDFHKRTPNRYHLRSKKDDINLLPSKSSVTKICRDPQTPVLQTKHRARAVTCKSTAELEAEELEKLQQYKFKARELDPRILEGGPILPKKPPVKPPTEPIGFDLEIEKRIQERESKKKTEDEHFEFHSRPCPTKILEDVVGVPEKKVLPITVPKSPAFALKNRIRMPTKEDEEEDEPVVIKAQPVPHYGVPFKPQIPEARTVEICPFSFDSRDKERQLQKEKKIKELQKGEVPKFKALPLPHFDTINLPEKKVKNVTQIEPFCLETDRRGALKAQTWKHQLEEELRQQKEAACFKARPNTVISQEPFVPKKEKKSVAEGLSGSLVQEPFQLATEKRAKERQELEKRMAEVEAQKAQQLEEARLQEEEQKKEELARLRRELVHKANPIRKYQGLEIKSSDQPLTVPVSPKFSTRFHC
# partner: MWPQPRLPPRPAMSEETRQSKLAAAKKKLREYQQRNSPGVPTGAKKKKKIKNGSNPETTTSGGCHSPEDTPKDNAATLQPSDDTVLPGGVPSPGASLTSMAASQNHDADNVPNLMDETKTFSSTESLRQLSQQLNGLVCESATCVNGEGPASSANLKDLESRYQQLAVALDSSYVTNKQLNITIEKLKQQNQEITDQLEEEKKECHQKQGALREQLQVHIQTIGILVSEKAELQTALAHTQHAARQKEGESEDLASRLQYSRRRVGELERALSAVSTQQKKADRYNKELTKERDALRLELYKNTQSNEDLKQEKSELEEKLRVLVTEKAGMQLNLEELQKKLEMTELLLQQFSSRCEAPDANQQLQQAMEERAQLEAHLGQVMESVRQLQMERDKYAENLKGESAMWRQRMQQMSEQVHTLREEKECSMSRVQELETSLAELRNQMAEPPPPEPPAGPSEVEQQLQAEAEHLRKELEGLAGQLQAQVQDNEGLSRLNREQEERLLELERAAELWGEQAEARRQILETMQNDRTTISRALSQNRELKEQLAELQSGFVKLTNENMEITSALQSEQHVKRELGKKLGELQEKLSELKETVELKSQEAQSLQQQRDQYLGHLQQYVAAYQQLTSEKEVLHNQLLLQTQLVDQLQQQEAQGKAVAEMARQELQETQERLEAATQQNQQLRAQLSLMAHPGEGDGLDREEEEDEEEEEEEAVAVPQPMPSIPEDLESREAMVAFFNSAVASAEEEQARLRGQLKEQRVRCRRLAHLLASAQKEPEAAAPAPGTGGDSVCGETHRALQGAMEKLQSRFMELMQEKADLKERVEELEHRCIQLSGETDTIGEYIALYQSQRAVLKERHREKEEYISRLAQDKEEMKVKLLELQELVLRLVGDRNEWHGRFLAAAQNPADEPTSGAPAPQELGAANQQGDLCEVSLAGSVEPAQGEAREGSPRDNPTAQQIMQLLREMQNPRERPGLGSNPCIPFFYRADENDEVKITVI
# B3: Aflatoxin B1 aldehyde reductase member 2 (Homo sapiens), O43488 (parent)
# chain: MLSAASRVVSRAAVHCALRSPPPEARALAMSRPPPPRVASVLGTMEMGRRMDAPASAAAVRAFLERGHTELDTAFMYSDGQSETILGGLGLGLGGGDCRVKIATKANPWDGKSLKPDSVRSQLETSLKRLQCPQVDLFYLHAPDHGTPVEETLHACQRLHQEGKFVELGLSNYASWEVAEICTLCKSNGWILPTVYQGMYNATTRQVETELFPCLRHFGLRFYAYNPLAGGLLTGKYKYEDKDGKQPVGRFFGNSWAETYRNRFWKEHHFEAIALVEKALQAAYGASAPSVTSAALRWMYHHSQLQGAHGDAVILGMSSLEQLEQNLAATEEGPLEPAVVDAFNQAWHLVAHECPNYFR
# partner: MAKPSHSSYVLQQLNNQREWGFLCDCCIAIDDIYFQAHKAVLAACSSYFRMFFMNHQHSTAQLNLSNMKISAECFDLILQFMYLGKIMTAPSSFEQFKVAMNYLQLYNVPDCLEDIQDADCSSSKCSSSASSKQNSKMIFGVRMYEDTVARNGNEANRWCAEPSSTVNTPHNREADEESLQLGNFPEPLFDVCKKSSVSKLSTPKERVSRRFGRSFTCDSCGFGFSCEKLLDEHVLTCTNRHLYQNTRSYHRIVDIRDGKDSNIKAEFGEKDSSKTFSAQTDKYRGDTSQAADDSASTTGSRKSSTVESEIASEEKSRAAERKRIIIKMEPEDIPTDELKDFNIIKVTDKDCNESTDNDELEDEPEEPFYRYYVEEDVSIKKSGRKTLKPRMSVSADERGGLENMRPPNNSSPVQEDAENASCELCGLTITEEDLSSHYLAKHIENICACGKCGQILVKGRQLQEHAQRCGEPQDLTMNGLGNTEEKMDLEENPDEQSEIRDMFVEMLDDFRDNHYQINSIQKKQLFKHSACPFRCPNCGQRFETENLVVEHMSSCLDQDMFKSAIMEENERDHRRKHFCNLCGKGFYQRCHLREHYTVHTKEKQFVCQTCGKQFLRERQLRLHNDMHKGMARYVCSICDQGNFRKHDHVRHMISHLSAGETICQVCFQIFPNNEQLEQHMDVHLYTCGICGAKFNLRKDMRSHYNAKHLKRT
# B4: Protein DDI1 homolog 1 (Homo sapiens), Q8WTU0 (parent)
# chain: MLITVYCVRRDLSEVTFSLQVSPDFELRNFKVLCEAESRVPVEEIQIIHMERLLIEDHCSLGSYGLKDGDIVVLLQKDNVGPRAPGRAPNQPRVDFSGIAVPGTSSSRPQHPGQQQQRTPAAQRSQGLASGEKVAGLQGLGSPALIRSMLLSNPHDLSLLKERNPPLAEALLSGSLETFSQVLMEQQREKALREQERLRLYTADPLDREAQAKIEEEIRQQNIEENMNIAIEEAPESFGQVTMLYINCKVNGHPLKAFVDSGAQMTIMSQACAERCNIMRLVDRRWAGVAKGVGTQRIIGRVHLAQIQIEGDFLQCSFSILEDQPMDMLLGLDMLRRHQCSIDLKKNVLVIGTTGTQTYFLPEGELPLCSRMVSGQDESSDKEITHSVMDSGRKEH
# partner: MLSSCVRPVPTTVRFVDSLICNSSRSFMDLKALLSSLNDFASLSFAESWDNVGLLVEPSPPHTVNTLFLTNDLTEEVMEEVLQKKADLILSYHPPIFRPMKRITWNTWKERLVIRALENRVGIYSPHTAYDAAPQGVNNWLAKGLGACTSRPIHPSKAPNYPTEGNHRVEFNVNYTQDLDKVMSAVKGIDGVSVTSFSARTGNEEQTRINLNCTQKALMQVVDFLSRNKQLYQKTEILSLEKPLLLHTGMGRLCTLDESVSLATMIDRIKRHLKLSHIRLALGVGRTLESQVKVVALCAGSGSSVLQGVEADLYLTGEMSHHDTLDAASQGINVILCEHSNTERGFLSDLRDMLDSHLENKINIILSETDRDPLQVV
# B5: DnaJ homolog subfamily C member 30, mitochondrial (Homo sapiens), Q96LL9 (parent)
# chain: MAAMRWRWWQRLLPWRLLQARGFPQNSAPSLGLGARTYSQGDCSYSRTALYDLLGVPSTATQAQIKAAYYRQCFLYHPDRNSGSAEAAERFTRISQAYVVLGSATLRRKYDRGLLSDEDLRGPGVRPSRTPAPDPGSPRTPPPTSRTHDGSRASPGANRTMFNFDAFYQAHYGEQLERERRLRARREALRKRQEYRSMKGLRWEDTRDTAAIFLIFSIFIIIGFYI
# partner: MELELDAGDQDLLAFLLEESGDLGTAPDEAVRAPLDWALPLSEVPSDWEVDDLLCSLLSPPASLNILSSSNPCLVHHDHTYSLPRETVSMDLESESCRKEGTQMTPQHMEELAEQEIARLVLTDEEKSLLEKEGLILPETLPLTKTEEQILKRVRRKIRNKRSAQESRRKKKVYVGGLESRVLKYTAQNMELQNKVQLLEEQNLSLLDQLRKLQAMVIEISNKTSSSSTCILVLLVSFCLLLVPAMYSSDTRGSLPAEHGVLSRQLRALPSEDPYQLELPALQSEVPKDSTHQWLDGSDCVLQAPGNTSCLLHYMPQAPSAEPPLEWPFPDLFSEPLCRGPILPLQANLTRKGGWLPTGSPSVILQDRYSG
# Variants of: B1
# Conditions: with abcf3_human ABCF3, Q9NUQ8
row,Variant,effect of a mutation on the interaction
1,R30L,with no effect
2,G196R,with no effect
3,M25V,with no effect

# Variants of: B2
# Conditions: with goga2_human GOLGA2, Q08379
row,Variant,effect of a mutation on the interaction
1,T464N,with no effect

# Variants of: B3
# Conditions: with zbtb1_human ZBTB1, Q9Y2K1
row,Variant,effect of a mutation on the interaction
1,A142T,disrupting interaction strength

# Variants of: B4
# Conditions: with nif3l_human NIF3L1, Q9GZT8
row,Variant,effect of a mutation on the interaction
1,D323N,with no effect
2,R208G,with no effect
3,R87C,with no effect
4,S63A,with no effect
5,N228T,with no effect
6,G136S,with no effect

# Variants of: B5
# Conditions: with creb3_human CREB3, O43889
row,Variant,effect of a mutation on the interaction
1,T48K,with no effect
